# Test results published in the supplement of paper PMC9112550, “Optimization of the antimicrobial peptide Bac7 by deep mutational scanning” (BMC Biology, 2022).
# Test system: Escherichia coli TOP10
# Assay: shrunken log2 fold change of peptide-encoding DNA abundance (4.5 h post-induction vs induction); higher = less antimicrobial activity (less host growth inhibition)
# Details: time post-induction: 4.5 h; library: site-saturation at positions 5, 18, 19, 20
# 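Also: peptides expressed intracellularly from a pBAD plasmid library in pooled LB shake-flask culture, induced with 0.3% L-arabinose, DNA abundance read by NGS, three biological replicates, DESeq2 with apeglm shrinkage.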
row,Sequence,shrunken log2 fold change
1,RRIRNRPPRLPRPRPRPVRHPRP,-0.0637
2,RRIRRRPPRLPRPRPRPNGYPRP,0.17
3,RRIRPRPPRLPRPRPRPCTQPRP,-0.106
4,RRIRLRPPRLPRPRPRPKMYPRP,-0.14
5,RRIRGRPPRLPRPRPRPICFPRP,0.535
6,RRIRDRPPRLPRPRPRPKIGPRP,-0.0266
7,RRIRLRPPRLPRPRPRPIHSPRP,-1.61
8,RRIRARPPRLPRPRPRPWMMPRP,-0.248
9,RRIRARPPRLPRPRPRPVHVPRP,0.00822
10,RRIRWRPPRLPRPRPRPDGAPRP,0.227
11,RRIRTRPPRLPRPRPRPCRFPRP,-0.265
12,RRIRARPPRLPRPRPRPSHEPRP,0.415
13,RRIRPRPPRLPRPRPRPTCYPRP,-0.127
14,RRIRWRPPRLPRPRPRPMYHPRP,-0.712
15,RRIRTRPPRLPRPRPRPEMCPRP,-0.00146
16,RRIRDRPPRLPRPRPRPVYKPRP,-0.601
17,RRIRWRPPRLPRPRPRPNSKPRP,-0.218
18,RRIRERPPRLPRPRPRPPVNPRP,0.148
19,RRIRSRPPRLPRPRPRPTREPRP,0.536
20,RRIRCRPPRLPRPRPRPFYWPRP,0.0228
21,RRIRRRPPRLPRPRPRPRGKPRP,0.694
22,RRIRDRPPRLPRPRPRPIWMPRP,-0.00247
23,RRIRHRPPRLPRPRPRPVRVPRP,0.0942
24,RRIRIRPPRLPRPRPRPHMMPRP,-1.37
25,RRIRQRPPRLPRPRPRPRRPPRP,0.472

row,Sequence,shrunken log2 fold change
1,RRIRYRPPRLPRPRPRPVPGPRP,-0.151
2,RRIRWRPPRLPRPRPRPATNPRP,0.317
3,RRIRQRPPRLPRPRPRPIPCPRP,-0.244
4,RRIRPRPPRLPRPRPRPCSLPRP,0.527
5,RRIRTRPPRLPRPRPRPMSAPRP,-0.152
6,RRIRVRPPRLPRPRPRPFWQPRP,0.181
7,RRIRYRPPRLPRPRPRPLLTPRP,-0.647
8,RRIRARPPRLPRPRPRPIKDPRP,0.0786
9,RRIRLRPPRLPRPRPRPNMIPRP,-0.571
10,RRIRFRPPRLPRPRPRPQEIPRP,-0.0426
11,RRIRLRPPRLPRPRPRPWHKPRP,-0.0761
12,RRIRGRPPRLPRPRPRPWVNPRP,0.0175
13,RRIRRRPPRLPRPRPRPQWVPRP,0.279
14,RRIRFRPPRLPRPRPRPFKPPRP,-0.147
15,RRIRPRPPRLPRPRPRPWTNPRP,-0.0167
16,RRIRKRPPRLPRPRPRPRRTPRP,0.443
17,RRIRDRPPRLPRPRPRPYLLPRP,-0.179
18,RRIRFRPPRLPRPRPRPEMEPRP,0.252
19,RRIRARPPRLPRPRPRPDWFPRP,0.408
20,RRIRERPPRLPRPRPRPFGCPRP,-0.0136
21,RRIRARPPRLPRPRPRPQNCPRP,-0.19
22,RRIRVRPPRLPRPRPRPSAGPRP,0.295
23,RRIRDRPPRLPRPRPRPWMFPRP,-0.0535
24,RRIRFRPPRLPRPRPRPMEMPRP,-0.0294
25,RRIRSRPPRLPRPRPRPEDLPRP,-0.0115

row,Sequence,shrunken log2 fold change
1,RRIRNRPPRLPRPRPRPTLWPRP,0.326
2,RRIRERPPRLPRPRPRPAVVPRP,-0.171
3,RRIRTRPPRLPRPRPRPPNSPRP,0.0134
4,RRIRIRPPRLPRPRPRPDPYPRP,-0.555
5,RRIRPRPPRLPRPRPRPDVWPRP,0.266
6,RRIRERPPRLPRPRPRPMAMPRP,0.0346
7,RRIRGRPPRLPRPRPRPIFSPRP,0.312
8,RRIRGRPPRLPRPRPRPINNPRP,-0.0606
9,RRIRVRPPRLPRPRPRPHQPPRP,0.0593
10,RRIRRRPPRLPRPRPRPNVLPRP,-0.185
11,RRIRVRPPRLPRPRPRPSCCPRP,-0.133
12,RRIRFRPPRLPRPRPRPPYHPRP,-0.454
13,RRIRFRPPRLPRPRPRPEFCPRP,0.139
14,RRIRCRPPRLPRPRPRPQCVPRP,-0.0975
15,RRIRVRPPRLPRPRPRPDVFPRP,-0.0779
16,RRIRWRPPRLPRPRPRPCLAPRP,0.329
17,RRIRSRPPRLPRPRPRPNDKPRP,-0.553
18,RRIRMRPPRLPRPRPRPWMGPRP,-0.33
19,RRIRFRPPRLPRPRPRPTMSPRP,-0.236
20,RRIRIRPPRLPRPRPRPNSIPRP,-0.366
21,RRIRSRPPRLPRPRPRPHELPRP,-0.101
22,RRIRNRPPRLPRPRPRPSPGPRP,0.431
23,RRIRCRPPRLPRPRPRPPQEPRP,-0.069
24,RRIRKRPPRLPRPRPRPRCDPRP,0.288
25,RRIRDRPPRLPRPRPRPLHIPRP,-0.0915

row,Sequence,shrunken log2 fold change
1,RRIRERPPRLPRPRPRPNQKPRP,-0.108
2,RRIRMRPPRLPRPRPRPAKNPRP,0.816
3,RRIRSRPPRLPRPRPRPIDHPRP,-0.273
4,RRIRERPPRLPRPRPRPMNCPRP,0.0528
5,RRIRHRPPRLPRPRPRPILQPRP,-0.152
6,RRIRSRPPRLPRPRPRPSEEPRP,-0.243
7,RRIRTRPPRLPRPRPRPCMCPRP,-0.222
8,RRIRKRPPRLPRPRPRPASWPRP,0.625
9,RRIRQRPPRLPRPRPRPSLRPRP,0.239
10,RRIRNRPPRLPRPRPRPVNSPRP,0.0303
11,RRIRRRPPRLPRPRPRPEQVPRP,-0.0118
12,RRIRDRPPRLPRPRPRPSMEPRP,0.0308
13,RRIRTRPPRLPRPRPRPKRRPRP,0.513
14,RRIRPRPPRLPRPRPRPPQFPRP,0.297
15,RRIRGRPPRLPRPRPRPKSHPRP,0.536
16,RRIRDRPPRLPRPRPRPTLNPRP,0.171
17,RRIRQRPPRLPRPRPRPNPHPRP,0.121
18,RRIRFRPPRLPRPRPRPDRRPRP,-0.39
19,RRIRYRPPRLPRPRPRPWIWPRP,-0.000921
20,RRIRCRPPRLPRPRPRPKNDPRP,-0.048
21,RRIRARPPRLPRPRPRPQPAPRP,0.679
22,RRIRHRPPRLPRPRPRPIHFPRP,-0.171
23,RRIRCRPPRLPRPRPRPKFHPRP,-0.498
24,RRIRQRPPRLPRPRPRPYYFPRP,-0.661
25,RRIRSRPPRLPRPRPRPVCCPRP,0.183

row,Sequence,shrunken log2 fold change
1,RRIRQRPPRLPRPRPRPWVAPRP,-0.182
2,RRIRLRPPRLPRPRPRPVFGPRP,0.0724
3,RRIRWRPPRLPRPRPRPKASPRP,-0.00939
4,RRIRERPPRLPRPRPRPMPTPRP,-0.00177
5,RRIRARPPRLPRPRPRPLEWPRP,-0.0062
6,RRIRIRPPRLPRPRPRPLLEPRP,-0.437
7,RRIRMRPPRLPRPRPRPDTSPRP,1.47
8,RRIRPRPPRLPRPRPRPMDMPRP,-0.784
9,RRIRQRPPRLPRPRPRPQEDPRP,-0.0264
10,RRIRQRPPRLPRPRPRPTEDPRP,0.0148
11,RRIRERPPRLPRPRPRPKATPRP,0.205
12,RRIRRRPPRLPRPRPRPTPPPRP,0.845
13,RRIRMRPPRLPRPRPRPMLWPRP,0.19
14,RRIRQRPPRLPRPRPRPQVHPRP,0.0124
15,RRIRFRPPRLPRPRPRPWGKPRP,-0.221
16,RRIRSRPPRLPRPRPRPKTWPRP,-0.0488
17,RRIRGRPPRLPRPRPRPDEVPRP,0.885
18,RRIRFRPPRLPRPRPRPHFLPRP,-0.827
19,RRIRERPPRLPRPRPRPCDMPRP,-0.0119
20,RRIRDRPPRLPRPRPRPYPLPRP,0.215
21,RRIRVRPPRLPRPRPRPPVTPRP,-0.0902
22,RRIRSRPPRLPRPRPRPCQPPRP,0.0956
23,RRIRKRPPRLPRPRPRPNEHPRP,0.448
24,RRIRFRPPRLPRPRPRPKKGPRP,0.106
25,RRIRIRPPRLPRPRPRPVNFPRP,-0.0259

row,Sequence,shrunken log2 fold change
1,RRIRIRPPRLPRPRPRPCGRPRP,0.0552
2,RRIRMRPPRLPRPRPRPHVNPRP,-0.132
3,RRIRCRPPRLPRPRPRPMQKPRP,0.0364
4,RRIRHRPPRLPRPRPRPWLEPRP,-0.0848
5,RRIRQRPPRLPRPRPRPHYGPRP,0.0133
6,RRIRFRPPRLPRPRPRPPDIPRP,-0.329
7,RRIRHRPPRLPRPRPRPAVAPRP,0.117
8,RRIRDRPPRLPRPRPRPRNGPRP,0.0517
9,RRIRMRPPRLPRPRPRPDRHPRP,0.0052
10,RRIRNRPPRLPRPRPRPATFPRP,-0.441
11,RRIRDRPPRLPRPRPRPWWCPRP,-0.00632
12,RRIRARPPRLPRPRPRPIVNPRP,-0.178
13,RRIRKRPPRLPRPRPRPRRNPRP,0.316
14,RRIRRRPPRLPRPRPRPPHDPRP,1.49
15,RRIRARPPRLPRPRPRPEAHPRP,0.0341
16,RRIRTRPPRLPRPRPRPNEWPRP,-0.0827
17,RRIRLRPPRLPRPRPRPGECPRP,0.159
18,RRIRQRPPRLPRPRPRPHIHPRP,-0.476
19,RRIRWRPPRLPRPRPRPLQRPRP,0.189
20,RRIRLRPPRLPRPRPRPADRPRP,-0.0121
21,RRIRFRPPRLPRPRPRPNMIPRP,-0.495
22,RRIRMRPPRLPRPRPRPTKPPRP,0.0618
23,RRIRCRPPRLPRPRPRPVMHPRP,-0.212
24,RRIRKRPPRLPRPRPRPSTWPRP,-0.18
25,RRIRHRPPRLPRPRPRPPVKPRP,0.0106
